# Reference: the supplement of paper PMC7125110
# ± gives the standard error. For some assays here: Fewer inactive variants are shown than the library holds.
# B1: glmS ribozyme (parent)
# chain: AUAAAAGCGCCAGAACUACAGAAAUGUAGUUGACGAGGAGGAGGUUUAUCGAAUUUUCGGCGGAUGCCUCCAAA
# How the values were obtained:
# Conditions in all cases: with glucosamine-6-phosphate
# [1] = variants of: B1; assay: self-cleavage kobs at 40 uM GlcN6P; higher = faster cleavage; RNA array
# Outline: (§1)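 Glucosamine-6-phosphate (40 μM to 10 mM) in HEPES/KCl/Mg(OAc)2 buffer was flowed over sequenced MiSeq chips, and tiles were imaged over ~14 h. Barcoded ribozyme variants there had been transcribed in situ by E. coli RNA polymerase and were tracked through a hybridised Cy3 probe at 37 °C. One- or two-exponential decay fits to per-tile medians, normalised to baseline and to non-cleaving reference variants, gave kobs. kcat and KM came from weighted Michaelis–Menten fits across concentrations.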
# [2] = variants of: B1; assay: self-cleavage kobs at 160 uM GlcN6P; higher = faster cleavage; RNA array
# Outline: as §1
# [3] = variants of: B1; assay: self-cleavage kobs at 640 uM GlcN6P; higher = faster cleavage; RNA array
# Outline: as §1
# [4] = variants of: B1; assay: self-cleavage kobs at 2500 uM GlcN6P; higher = faster cleavage; RNA array
# Outline: as §1
# [5] = variants of: B1; assay: self-cleavage kobs at 10000 uM GlcN6P; higher = faster cleavage; RNA array
# Outline: as §1
# [6] = variants of: B1; assay: KM; higher = weaker cofactor use; RNA array
# Outline: as §1
Variant,self-cleavage kobs at 40 uM GlcN6P [1],self-cleavage kobs at 160 uM GlcN6P [2],self-cleavage kobs at 640 uM GlcN6P [3],self-cleavage kobs at 2500 uM GlcN6P [4],self-cleavage kobs at 10000 uM GlcN6P [5],KM [6]
A6C G9C,< 1e-05 s⁻¹,< 1e-05 s⁻¹,< 1e-05 s⁻¹,< 1e-05 s⁻¹,< 1e-05 s⁻¹,–
G9A A39G,< 1e-05 s⁻¹,< 1e-05 s⁻¹,–,–,–,–
A6G G40C U47G U49G C58G C68A,< 1e-05 s⁻¹,–,–,–,< 1e-05 s⁻¹,–
G38U A53G,< 1e-05 s⁻¹,< 1e-05 s⁻¹,< 1e-05 s⁻¹,–,–,–
G35U G51U,–,–,–,–,–,31.5 ± 11 µM
C34G A39C U46G,< 1e-05 s⁻¹,< 1e-05 s⁻¹,–,< 1e-05 s⁻¹,< 1e-05 s⁻¹,–
A6C A14C A39G C50A,< 1e-05 s⁻¹,–,–,–,–,–
C10G G63A,< 1e-05 s⁻¹,–,–,–,< 1e-05 s⁻¹,–
C8A G44U,< 1e-05 s⁻¹,< 1e-05 s⁻¹,< 1e-05 s⁻¹,–,< 1e-05 s⁻¹,–
A6G G13C U31G A39C U45G,< 1e-05 s⁻¹,–,–,–,< 1e-05 s⁻¹,–
A6C A12U A42U,< 1e-05 s⁻¹,–,< 1e-05 s⁻¹,–,< 1e-05 s⁻¹,–
G13A A15U G41U C50A U54A U57C,< 1e-05 s⁻¹,–,–,–,< 1e-05 s⁻¹,–
A14G U31C,0.0012 ± 0.00019 s⁻¹,0.00337 ± 0.00062 s⁻¹,0.00963 ± 0.0011 s⁻¹,0.0154 ± 0.0043 s⁻¹,0.05 ± 0.013 s⁻¹,891 ± 450 µM
G9C A33U,< 1e-05 s⁻¹,< 1e-05 s⁻¹,< 1e-05 s⁻¹,< 1e-05 s⁻¹,< 1e-05 s⁻¹,–
C34U U45C,< 1e-05 s⁻¹,< 1e-05 s⁻¹,–,< 1e-05 s⁻¹,< 1e-05 s⁻¹,–
G35C C50U,< 1e-05 s⁻¹,< 1e-05 s⁻¹,< 1e-05 s⁻¹,< 1e-05 s⁻¹,< 1e-05 s⁻¹,–
G13A A15U G37C,< 1e-05 s⁻¹,–,–,–,–,–
A12C A14G,0.00067 ± 0.00016 s⁻¹,0.00156 ± 0.00021 s⁻¹,0.00653 ± 0.0012 s⁻¹,0.0128 ± 0.0023 s⁻¹,0.0484 ± 0.011 s⁻¹,–
A15C G41U C70A,0.000696 ± 0.00013 s⁻¹,–,–,–,–,–
G32C A53U G59C C71U,< 1e-05 s⁻¹,–,< 1e-05 s⁻¹,–,< 1e-05 s⁻¹,–
A36C G51U,–,–,–,–,–,10.4 ± 3.3 µM
G26U U31G G44U C50U,< 1e-05 s⁻¹,–,–,< 1e-05 s⁻¹,< 1e-05 s⁻¹,–
U30C C34U,< 1e-05 s⁻¹,–,< 1e-05 s⁻¹,–,–,–
A12G A36U A42U G51U A53C,< 1e-05 s⁻¹,–,–,–,–,–

Variant,self-cleavage kobs at 40 uM GlcN6P [1],self-cleavage kobs at 160 uM GlcN6P [2],self-cleavage kobs at 640 uM GlcN6P [3],self-cleavage kobs at 2500 uM GlcN6P [4],self-cleavage kobs at 10000 uM GlcN6P [5],KM [6]
C16U G60U,< 1e-05 s⁻¹,< 1e-05 s⁻¹,< 1e-05 s⁻¹,–,–,–
G7U G32C,< 1e-05 s⁻¹,–,< 1e-05 s⁻¹,< 1e-05 s⁻¹,< 1e-05 s⁻¹,–
C10A U45G,< 1e-05 s⁻¹,–,< 1e-05 s⁻¹,< 1e-05 s⁻¹,< 1e-05 s⁻¹,–
G62C,< 1e-05 s⁻¹,< 1e-05 s⁻¹,< 1e-05 s⁻¹,< 1e-05 s⁻¹,< 1e-05 s⁻¹,–
C34A G51A G63U C71U,< 1e-05 s⁻¹,–,–,–,< 1e-05 s⁻¹,–
A6G U57C,< 1e-05 s⁻¹,< 1e-05 s⁻¹,< 1e-05 s⁻¹,< 1e-05 s⁻¹,–,–
C11A C61U C70U,< 1e-05 s⁻¹,–,–,–,< 1e-05 s⁻¹,–
A6C C10U A33G G41U U47G U55C,< 1e-05 s⁻¹,–,< 1e-05 s⁻¹,–,< 1e-05 s⁻¹,–
C8A G35C,< 1e-05 s⁻¹,< 1e-05 s⁻¹,< 1e-05 s⁻¹,< 1e-05 s⁻¹,< 1e-05 s⁻¹,–
U30G A39G C50G C68G,0.00025 ± 6.5e-05 s⁻¹,–,–,–,0.000218 ± 4.7e-05 s⁻¹,–
G40A G59A,–,–,–,–,–,1080 ± 65 µM
U31A U45A,0.000743 ± 0.0001 s⁻¹,0.00207 ± 0.00071 s⁻¹,0.00537 ± 0.0013 s⁻¹,0.0106 ± 0.0024 s⁻¹,0.0333 ± 0.01 s⁻¹,813 ± 360 µM
G35A U47G,< 1e-05 s⁻¹,< 1e-05 s⁻¹,< 1e-05 s⁻¹,< 1e-05 s⁻¹,< 1e-05 s⁻¹,–
A39G G51C G62C,< 1e-05 s⁻¹,–,–,–,< 1e-05 s⁻¹,–
A6G G9C G59U,< 1e-05 s⁻¹,–,–,< 1e-05 s⁻¹,–,–
A33U A48C,< 1e-05 s⁻¹,< 1e-05 s⁻¹,< 1e-05 s⁻¹,< 1e-05 s⁻¹,< 1e-05 s⁻¹,–
A36G C50U U57A,< 1e-05 s⁻¹,–,–,–,< 1e-05 s⁻¹,–
G35C U65A,< 1e-05 s⁻¹,–,< 1e-05 s⁻¹,–,< 1e-05 s⁻¹,–
A42C G43C C50U C67U,< 1e-05 s⁻¹,–,–,–,–,–
U65C C68U C71U,< 1e-05 s⁻¹,–,–,–,–,–
A12U G66A,0.0012 ± 0.00016 s⁻¹,0.00266 ± 0.0007 s⁻¹,0.00776 ± 0.002 s⁻¹,0.00745 ± 0.0017 s⁻¹,0.0359 ± 0.012 s⁻¹,278 ± 130 µM
A12C G38A G60A,< 1e-05 s⁻¹,< 1e-05 s⁻¹,–,–,< 1e-05 s⁻¹,–
A33G G41C U47C,< 1e-05 s⁻¹,–,< 1e-05 s⁻¹,< 1e-05 s⁻¹,–,–
A12G A36U C50G C70U C71U,0.000102 ± 4.6e-05 s⁻¹,–,–,–,5.91e-05 ± 1.9e-05 s⁻¹,–

Variant,self-cleavage kobs at 40 uM GlcN6P [1],self-cleavage kobs at 160 uM GlcN6P [2],self-cleavage kobs at 640 uM GlcN6P [3],self-cleavage kobs at 2500 uM GlcN6P [4],self-cleavage kobs at 10000 uM GlcN6P [5],KM [6]
G41U G43U U57G G62A C68A,< 1e-05 s⁻¹,< 1e-05 s⁻¹,< 1e-05 s⁻¹,< 1e-05 s⁻¹,< 1e-05 s⁻¹,–
G62U U65G,< 1e-05 s⁻¹,< 1e-05 s⁻¹,< 1e-05 s⁻¹,< 1e-05 s⁻¹,< 1e-05 s⁻¹,–
A6U A36U C70U,< 1e-05 s⁻¹,–,–,–,–,–
G38U C71A,–,–,–,–,–,35.8 ± 15 µM
A14U C34G,< 1e-05 s⁻¹,< 1e-05 s⁻¹,< 1e-05 s⁻¹,–,< 1e-05 s⁻¹,–
G13U A48C,–,–,–,–,–,3030 ± 610 µM
G29C U54A,6.64e-05 ± 1.5e-05 s⁻¹,–,0.000499 ± 8.4e-05 s⁻¹,0.000928 ± 0.00025 s⁻¹,0.00381 ± 0.00046 s⁻¹,–
G7U A14U U55C G63U C70A,< 1e-05 s⁻¹,–,< 1e-05 s⁻¹,< 1e-05 s⁻¹,–,–
U30A G37U G44U U45A C70U,< 1e-05 s⁻¹,–,–,–,< 1e-05 s⁻¹,–
U55G G60U,< 1e-05 s⁻¹,< 1e-05 s⁻¹,< 1e-05 s⁻¹,< 1e-05 s⁻¹,–,–
C34A G60A C71A,< 1e-05 s⁻¹,–,–,–,< 1e-05 s⁻¹,–
C10A A48G,< 1e-05 s⁻¹,< 1e-05 s⁻¹,< 1e-05 s⁻¹,–,< 1e-05 s⁻¹,–
C11U G63U,< 1e-05 s⁻¹,–,–,< 1e-05 s⁻¹,< 1e-05 s⁻¹,–
A14C G41A C50G G59U,< 1e-05 s⁻¹,–,–,–,–,–
A12U C34G,< 1e-05 s⁻¹,< 1e-05 s⁻¹,< 1e-05 s⁻¹,< 1e-05 s⁻¹,< 1e-05 s⁻¹,–
C8G C68G,< 1e-05 s⁻¹,< 1e-05 s⁻¹,–,–,< 1e-05 s⁻¹,–
C34A U57G G63C C71U,< 1e-05 s⁻¹,–,< 1e-05 s⁻¹,< 1e-05 s⁻¹,–,–
U30G U55G C71U,0.00027 ± 5e-05 s⁻¹,–,0.00135 ± 0.00022 s⁻¹,0.00316 ± 0.0014 s⁻¹,0.00591 ± 0.001 s⁻¹,–
A12U A15G C71U,0.00147 ± 0.00036 s⁻¹,–,–,–,–,–
A36U,–,–,–,–,–,584 ± 170 µM
C8G U55A C61A,< 1e-05 s⁻¹,–,–,–,–,–
G59U C61G A64G,< 1e-05 s⁻¹,–,< 1e-05 s⁻¹,< 1e-05 s⁻¹,< 1e-05 s⁻¹,–
G13U G32A G37C A42C,< 1e-05 s⁻¹,< 1e-05 s⁻¹,–,< 1e-05 s⁻¹,< 1e-05 s⁻¹,–
C8U A15C,< 1e-05 s⁻¹,< 1e-05 s⁻¹,< 1e-05 s⁻¹,–,–,–

Variant,self-cleavage kobs at 40 uM GlcN6P [1],self-cleavage kobs at 160 uM GlcN6P [2],self-cleavage kobs at 640 uM GlcN6P [3],self-cleavage kobs at 2500 uM GlcN6P [4],self-cleavage kobs at 10000 uM GlcN6P [5],KM [6]
G7C A33U G41A U56A C71U,< 1e-05 s⁻¹,–,–,–,–,–
A14U G37A C50U G63C,< 1e-05 s⁻¹,–,–,–,–,–
C16G G29U G32A,7.82e-05 ± 1.9e-05 s⁻¹,–,–,–,0.0042 ± 0.0009 s⁻¹,–
G43C A64U,< 1e-05 s⁻¹,< 1e-05 s⁻¹,–,< 1e-05 s⁻¹,< 1e-05 s⁻¹,–
A33G G38U,–,–,–,–,–,47.2 ± 22 µM
G41C A53C C61A,< 1e-05 s⁻¹,–,–,–,< 1e-05 s⁻¹,–
A6U G13A A14U,< 1e-05 s⁻¹,< 1e-05 s⁻¹,–,–,< 1e-05 s⁻¹,–
G40U C71A,0.000671 ± 6.2e-05 s⁻¹,0.00189 ± 0.00028 s⁻¹,0.00561 ± 0.00069 s⁻¹,0.00906 ± 0.0019 s⁻¹,0.0484 ± 0.0079 s⁻¹,–
A33U U65C,< 1e-05 s⁻¹,< 1e-05 s⁻¹,< 1e-05 s⁻¹,–,–,–
G51U U65G,–,–,–,–,–,63.4 ± 18 µM
A33C U45C,< 1e-05 s⁻¹,–,–,–,4.65e-05 ± 1.3e-05 s⁻¹,–
G9A C16U A42G C50G,0.000108 ± 4.9e-05 s⁻¹,–,–,–,–,–
A33U U45G G51A,< 1e-05 s⁻¹,–,–,–,< 1e-05 s⁻¹,–
G35U C58G G62U,< 1e-05 s⁻¹,–,–,–,–,–
A14C C67U C70U,< 1e-05 s⁻¹,–,–,–,6.08e-05 ± 1.4e-05 s⁻¹,–
G13C G51C,< 1e-05 s⁻¹,–,< 1e-05 s⁻¹,< 1e-05 s⁻¹,< 1e-05 s⁻¹,–
A36G C58A,< 1e-05 s⁻¹,–,–,< 1e-05 s⁻¹,< 1e-05 s⁻¹,–
G63A U65C,< 1e-05 s⁻¹,–,< 1e-05 s⁻¹,–,< 1e-05 s⁻¹,–
G40U C58G,–,–,–,–,–,4730 ± 1300 µM
C34G G41U U49G A52C A64C,< 1e-05 s⁻¹,–,–,–,–,–
C10U C11G C16A C50G,9.19e-05 ± 2.5e-05 s⁻¹,–,0.000376 ± 9.9e-05 s⁻¹,0.000168 ± 3.4e-05 s⁻¹,8e-05 ± 2.2e-05 s⁻¹,–
